What was measured:
[1] = target: Cas7 of the Desulfovibrio vulgaris type I-C Cascade (Desulfovibrio vulgaris); experiment: cryo-EM structure; purified type I-C Cascade with its crRNA, 0.3 mg/mL in 20 mM HEPES-NaOH pH 7.5, 100 mM KCl, 1 mM TCEP; graphene oxide grids; 3.1 A (3.13 A) reconstruction
[2] = target: Cas7 of the Desulfovibrio vulgaris type I-C Cascade (Desulfovibrio vulgaris); experiment: native MS; purified type I-C Cascade with its crRNA, about 6 uM, in 100 mM ammonium acetate; positive mode; in-source trapping at -120 and -300 V to release subunits and subcomplexes
[3] = target: Cas8c, large subunit of the Desulfovibrio vulgaris type I-C Cascade (Desulfovibrio vulgaris); experiment: as above

| Substance | stoichiometry N [1] | stoichiometry N [2] | stoichiometry N [3] |
| --- | --- | --- | --- |
| Cas7 of the Desulfovibrio vulgaris type I-C Cascade (natural protein) | 7 | 7 | – |
| non-canonical small subunit (SSU) Cas11c of the Desulfovibrio vulgaris type I-C Cascade (domain or fragment) | – | – | 2 |

Source: PMC7684278
